Patent US8030017B2, “Thermostable luciferases and methods of production” (Promega Corporation, priority 1997, dated 2011)
Numbering of substitutions follows the chain as printed. In names and notes the source's numbering stands.

Legend:
[1] = Stability of luciferase activity in cell lysates at room temperature (with Triton X-100); type: physicochemical; conditions: over 5 hours at room temperature
Procedure: Although the luminescence activity of LucPpl within colonies of E. coli appeared to be thermostable to above 60° C., in lysates these luciferases had relatively low stability. They were particularly unstable in the presence of Triton X-100 detergent. When lysates are prepared containing the commonly used firefly luciferase, the enzyme retains greater than 90% activity over 5 hours at room temperature. In contrast, the activity of the LucPpl luciferases would decrease several fold over the same period.
The thermostability of the mutant luciferases in cell lysates was compared at room temperature (FIG. 63). Dilute lysates were buffered at pH 7.5 and contained 1% Triton X-100; typical conditions for lysates of mammalian cells.

[2] = Thermostability (half-life, retained activity) of luciferases incubated in aqueous solution at different temperatures; type: physicochemical; conditions: purified enzyme
Description: As defined herein, a “thermostable” enzyme, e.g., a luciferase, or an enzyme which has “thermostability”, is an enzyme which under certain conditions, e.g., at certain temperature, in aqueous solution and/or for certain periods of time, has an increased retention of activity relative to a reference enzyme. For example, for a thermostable luciferase, a reference luciferase may be native wild-type luciferase or recombinant wild-type luciferase. Preferably, for beetle luciferases, the activity is luminescence under conditions of saturation with luciferin and ATP. One measure of thermostability of an enzyme is the half-life of the enzyme in an aqueous solution (the time over which 50% of the activity is lost) at a stated temperature.
(§1) Protein purification: Four mutants that are described herein (Luc[T249M], Luc49-7C6, Luc78-0B10, and Luc90-1B5) were purified using a previously published procedure (Hastings et al., 1996).
[…] Enzyme stability was determined from diluted proteins incubated at different temperatures, and aliquots were removed at different time points. A linear regression of the natural log of the luminescence and time was calculated. Half-life was calculated as the 1n(0.5)/slope of the regression.

[3] = Michaelis-Menten constant for luciferin of purified mutants; type: biochemical; conditions: purified enzyme
Description: (§2) Substrate binding was screened by measuring an apparent composite Km (see Example 2) for luciferin and ATP. […] The Km for luciferin rose while the Km for ATP declined (Table 3). The reason for this change is unknown, although it can be speculated that more efficient release of oxyluciferin or luciferin inhibitors could lead to more rapid enzyme turnover.
as §1

[4] = Michaelis-Menten constant for ATP of purified mutants; type: biochemical; conditions: purified enzyme
Description: as §2, §1

colonies of E. coli = experiment: In vivo luminescence of recombinant colonies of E. coli (visual screen); type: cell-based
Description: Five to seven nitrocellulose disks having 200-500 colonies per disk (1000-3500 colonies total) are screened per 2 microplates (176 clones) (Wood and DeLuca, 1987). The clones are screened at high temperatures using standard screening conditions.
Screening method: In the qualitative visual screen, colonies were selected only for their ability to sustain relatively bright luminescence. The thermal stability of the luciferase within the colonies of E. coli was progressively challenged in successive rounds of evolution by increasing the temperature of the screen. The selected colonies were inoculated into wells of 96-well plates each containing 200 μl of growth medium.
JM109 clones (from a transformation reaction) are plated onto nitrocellulose filters placed on LB amp plates at a screening density of about 500 colonies per plate.
The nitrocellulose filter is lifted on one side and 500 μl of 10 mM IPTG is added to each of the plates. The filter is then placed back onto the plate to allow diffusion of the IPTG into the colonies containing the different mutant luciferase genes. The plates are then incubated for about 4 hours at room temperature.
One (1) ml of a solution contains 1 mM luciferin and 100 mM sodium citrate is pipetted onto a slide warmer that is set at 50° C. […]

[5] = Retention of luminescence activity at pH 4.5 and 48° C.; type: physicochemical; conditions: for thermostability relative to Luc90-1B5: pH 4.5 and 48° C.; for half-life: pH 4.5 and 48° C. (FIG. 54B)
Procedure: Three populations of random mutants were produced using clone Luc90-1B5 as a template. These three populations were screened on the robot as experiments 114, 115, and 117. […] These screening conditions were biased to select clones that have increased retention of luminescence activity over time at pH 4.5 at 48° C. and increased luminescence activity when assayed at pH 7.1 with 10 μM ATP. Seventeen clones from experiment 114, seven clones from experiment 115, and ten clones from experiment 116 were shuffled together using sPCR and selected mutants from this screen were run on the robot as experiment 117. Eighteen clones were selected from experiment 117.

[6] = Assay to detect resistance to luciferase inhibitor (luciferin breakdown products); type: biochemical; conditions: luciferin degradation products (FIG. 61)
Procedure: A 10 mM stock solution of luciferin is incubated at 50° C. in 50 mM HEPES, pH 7.8, to accelerate the production of luciferin breakdown products. At different time points an aliquot is removed and then placed at −20° C. After incubation is complete, assay reagent (100 μM Luciferin, 1 μM ATP, 50 mM HEPES, pH 7.8 and 8 mM MgSO4) is prepared with luciferin from each of the different time points and a diluted lysate is then assayed with each assay reagent.
The lysate is prepared as follows. Overnight cultures of clones to be tested are prepared in LB supplemented with 100 μg/ml AMP. The cultures are diluted 1:10 in M-9 minimal media supplemented with 1 mM IPTG, 100 μg/ml AMP and grown for 3 hours at 30° C. Forty-five μl of cells is mixed with 20 μl of Buffer A and frozen. The mixture is thawed, 175 μl of Buffer B added, and the resulting mixture diluted 1:10 in Buffer C. A regression of luminescence versus time of luciferin incubation is then calculated, and from this graph half-life is extrapolated. A longer half-life means that the mutant being tested is more resistant to luciferin breakdown products.

[7] = Robotic thermostability screen of LucPpl mutants: decrease of activity over 10 hours at screening temperature; type: physicochemical
Procedure: “Enzyme stability” was determined by the rate of activity loss from cell lysates over 10 hours. In successive rounds of evolution the incubation temperature of the lysates was increased.
To prepare luciferases having certain performance, a method for in vitro evolution of enzyme function, as described above, was employed. Briefly described, the method is a recursive process of generating random mutations and screening for desirable properties. It was originally developed primarily to increase the thermostability of luciferases, although other enzymological characteristics are also subject to optimization by the screening criteria. A slightly different strategy was used to achieve the properties described above since two related luciferases needed to be optimized concomitantly.
The luciferases from P. plagiophthalamus have 13 cysteines, which are potentially sensitive to oxidation. This is in contrast to the commonly used firefly luciferase, which has only 4 cysteines. To remove any cysteines that may limit enzyme stability, oligonucleotide-directed mutagenesis was used to randomize the cysteine codons. Three sets of oligonucleotides were used: non-conserved cysteines in regions of low sequence homology (positions 69, 114, 160, 194, 335, and 460), non-conserved cysteines in regions of higher sequence homology (positions 127, 213, 310, and 311), and highly conserved cysteines (positions 60, 80, and 388). […]
The random mutagenesis process was repeated using the best clone from the previous cycle of mutagenesis (Luc53-0G01). […] The discrepancy in measured activity of Luc53-0G01 in this cycle of mutagenesis compared to the previous cycle may be due to changes in the assay procedure and recalibration of the incubator temperature. It should be noted that the recorded thermostabilities from each stage of mutagenesis are calculated from robotic data using abbreviated assay procedures. The data are intended to indicate the relative stabilities of enzyme mutants when assayed in the same screen, rather than providing an accurate quantitation of thermostability.

Molecule: firefly luciferase: the commonly used firefly luciferase
- activity retained in lysates [1]: greater than 90%

B1: LucPpe2[T249M]: LucPpe2 firefly luciferase (Photuris pennsylvanica) with mutation Thr to Met at residue 249, SEQ ID NO:25 (protein)
chain: MEDKNILYGPEPFYPLADGTAGEQMFYALSRYADISGCIALTNAHTKENVLYEEFLKLSCRLAESFKKYGLKQNDTIAVCSENGLQFFLPLIASLYLGIIAAPVSDKYIERELIHSLGIVKPRIIFCSKNTFQKVLNVKSKLKYVETIIILDLNEDLGGYQCLNNFISQNSDINLDVKKFKPNSFNRDDQVALVMFSSGTTGVSKGVMLTHKNIVARFSHCKDPTFGNAINPTTAILTVIPFHHGFGMMTTLGYFTCGFRVALMHTFEEKLFLQSLQDYKVESTLLVPTLMAFFAKSALVEKYDLSHLKEIASGGAPLSKEIGEMVKKRFKLNFVRQGYGLTETTSAVLITPDTDVRPGSTGKIVPFHAVKVVDPTTGKILGPNETGELYFKGDMIMKGYYNNEEATKAIINKDGWLRSGDIAYYDNDGHFYIVDRLKSLIKYKGYQVAPAEIEGILLQHPYIVDAGVTGIPDEAAGELPAAGVVVQTGKYLNEQIVQNFVSSQVSTAKWLRGGVKFLDEIPKGSTGKIDRKVLRQMFEKHKSKL
modifications: Mutant luciferase
- Thermostability Of Luciferase Activity (Half-Life In Hours) ([2]; 37° C.): 35.4 min
- Thermostability Of Luciferase Activity (Half-Life In Hours) ([2]; 50° C.): 0.6 min
- Thermostability Of Luciferase Activity (Half-Life In Hours) ([2]; Room Temperature (about 25° C.)): 6600 min
- Km [3]: 0.32 µM
- Km [4]: 18 µM
- light produced in vivo when expressed in E. coli, relative to LucPpe2 (colonies of E. coli): approximately 5 fold

B2: Luc133-1B2: mutant luciferase, SEQ ID NO:44 (protein)
chain: MADKNILYGPEPFYPLEDGTAGEQMFDALSRYADIPGCIALTNAHTKENVLYEEFLKLSCRLAESFKKYGLKQNDTIAVCSENSLQFFLPVIASLYLGIIVAPVNDKYIERELIHSLGIVKPRIVFCSKNTFQKVLNVKSKLKSIETIIILDLNDDLGGYQCLNNFISQNSDSNLDVKKFKPYSFNRDDQVALIMFSSGTTGLPKGVMLTHKNIVARFSIAKDPTFGNAINPTSAILTVIPFHHGFGMMTTLGYFTCGFRVVLMHTFEEKLFLQSLQDYKVESTLLVPTLMAFLAKSALVEKYDLSHLKEIASGGAPLSKEIGEMVKKRFKLNFVRQGYGLTETTSAVLITPKGDAKPGSTGKIVPFHAVKVVDPTTGKILGPNEPGELYFKGPMIMKGYYNNEEATKAIIDNDGWLRSGDIAYYDNDGHFYIVDRLKSLIKYKGYQVAPAEIEGILLQHPYIVDAGVTGIPDEAAGELPAAGVVVQTGKYLNEQIVQDYVASQVSTAKWLRGGVIFLDEIPKGSTGKIDRKVLRQMLEKHTNG
modifications: Mutant luciferase
- thermostability relative to Luc90-1B5 [5]: increased thermostability
- half-life [5]: about 20 minutes
- resistance to inhibitor relative to Luc90-1B5 [6]: increased resistance to inhibitor

B3: Luc146-1H2: mutant luciferase, SEQ ID NO:45 (protein)
chain: B2 chain with D34A, D155E, L193S, F367L, I516K
modifications: Mutant luciferase
- thermostability relative to Luc90-1B5 [5]: increased thermostability
- half-life [5]: about 62 minutes
- resistance to inhibitor relative to Luc90-1B5 [6]: increased resistance to inhibitor

B4: Luc30-4B02: LucPplYG mutant, first cycle of random mutagenesis (protein)
chain: MMKREKNVIYGPEPLHPLEDLTAGEMLFRALRKHSHLPQALVDVVGDESLSYKEFFEATVLLAQSLHNCGYKMNDVVSICAENNTRFFIPVIAAWYIGMIVAPVNESYIPDELCKVMGISKPQIVFTTKNILNKVLEVQSRTNFIKRIIVLDTVENIHGCESLPNFISRYSDGNIANFKPLHFDPVEQVAAILCSSGTTGLPKGVMQTHQNICVRLIHALDPRAGTQLIPGVTVLVYLPFFHAFGFSITLGYFMVGLRVIMSRRFDPEAFLKAIQDYEVRSVINVPSVILFLSKSPLVDKYDLSSLRELCCGAAPLAKEVAEVAAKRLNLPGIRCGFGLTESTSANIHSLRDEFKPGSLGRVTPLMAAKIADRETGKALGPNQVGELCIKGPMVSKGYVNNVEATKEAIDDDGWLHSGDFGYYDEDEHFYVVDRYKELIKYKGSQVAPAELEEILLKNPCIRDVAVVGIPDLEAGELPSAFVVKQPGKEITAKEVYDYLAERVSHTKYLRGGVRFVDSIPRNVTGKITRKELLKQLLEKAGG
modifications: Mutant luciferase
notes: LucPplYG mutant, first cycle of random mutagenesis
- decrease of activity over 10 hours ([7]; 41° C.): 63 fold
- decrease of activity ([7]; 42° C.): greater than 2000 fold
